Laboratory results published in PMC7948976, “KIF3A accelerates KIF3C within the kinesin-2 heterodimer to generate symmetrical phosphate release rates for each processive step” (The Journal of Biological Chemistry, 2020).

Key:
Experiment in all cases: stopped-flow presteady-state phosphate release, MDCC-PBP fluorescence; hyperbolic fit of initial exponential rates
Assay type in all cases: biochemical, Mus musculus
[1] = substrate: Nc1ncnc2c1ncn2[C@@H]1O[C@H](COP(=O)(O)OP(=O)(O)OP(=O)(O)O)[C@@H](O)[C@H]1O; settings: preformed microtubule-KIF3 complex (2 μM MT, 0.5 μM dimer in syringe), 250 mM KCl in ATP syringe, 5 mM magnesium acetate, pH 7.2, 25 °C, not steady-state Km
Excerpt: stopped-flow presteady-state phosphate release, MDCC-PBP fluorescence; hyperbolic fit of initial exponential rates on KIF3AC

[2] = substrate: Nc1ncnc2c1ncn2[C@@H]1O[C@H](COP(=O)(O)OP(=O)(O)OP(=O)(O)O)[C@@H](O)[C@H]1O; settings: preformed microtubule-KIF3 complex (2 μM MT, 0.5 μM dimer in syringe), 300 mM KCl in ATP syringe, 5 mM magnesium acetate, pH 7.2, 25 °C, not steady-state Km
Excerpt: stopped-flow presteady-state phosphate release, MDCC-PBP fluorescence; hyperbolic fit of initial exponential rates on KIF3AA

[3] = substrate: Nc1ncnc2c1ncn2[C@@H]1O[C@H](COP(=O)(O)OP(=O)(O)OP(=O)(O)O)[C@@H](O)[C@H]1O; settings: preformed microtubule-KIF3 complex (2 μM MT, 0.5 μM dimer in syringe), 300 mM KCl in ATP syringe, 5 mM magnesium acetate, pH 7.2, 25 °C, not steady-state Km; remark: listed apart in the source
Excerpt: stopped-flow presteady-state phosphate release, MDCC-PBP fluorescence; hyperbolic fit of initial exponential rates on KIF3CC

B1: KIF3AC (Mus musculus) (protein)
chain 1: MPINKSEKPESCDNVKVVVRCRPLNEREKSMCYRQAVSVDEMRGTITVHKTDSSNEPPKTFTFDTVFGPESKQLDVYNLTARPIIDSVLEGYNGTIFAYGQTGTGKTFTMEGVRAVPGLRGVIPNSFAHIFGHIAKAEGDTRFLVRVSYLEIYNEEVRDLLGKDQTQRLEVKERPDVGVYIKDLSAYVVNNADDMDRIMTLGHKNRSVGATNMNEHSSRSHAIFTITIECSEKGVDGNMHVRMGKLHLVDLAGSERQAKTGATGQRLKEATKINLSLSTLGNVISALVDGKSTHVPYRNSKLTRLLQDSLGGNSKTMMCANIGPADYNYDETISTLRYANRAKNIKNKARINEDPKDALLRQFQKEIEELKKKL
chain 2: MASKTKASEALKVVARCRPLSRKEEAAGHEQILTMDVKLGQVTLRNPRAAPGELPKTFTFDAVYDASSKQADLYDETVRPLIDSVLQGFNGTVFAYGQTGTGKTYTMQGTWVEPELRGVIPNAFEHIFTHISRSQNQQYLVRASYLEIYQEEIRDLLSKEPGKRLELKENPETGVYIKDLSSFVTKNVKEIEHVMNLGNQARAVGSTHMNEVSSRSHAIFVITVECSERGSDGQDHIRVGKLNLVDLAGSERQNKAGPNAAGGPATQPTAGGGSGSGSASGSASSGERPKEASKINLSLSALGNVIAALAGNRSTHIPYRDSKLTRLLQDSLGGNAKTIMVATLGPASHSYDESLSTLRFANRAKNIKNKPRVNEDPKDTLLREFQEEIARLKAQL
notes: heterodimer; motor domain, neck linker and helix α7 (KIF3A Met1-Leu374, KIF3C Met1-Leu396), each fused to EB1 dimerization domain; KIF3A StrepII tag, KIF3C His8 tag, tags not cleaved; E. coli; dimer MW 98,318
K0.5 [1]: 28.2 ± 1.8 µM

B2: KIF3AA (Mus musculus) (protein)
chain: B1 chain 1
notes: engineered homodimer; motor domain Met1-Leu374 fused to EB1 dimerization domain; His8 tag not cleaved; E. coli; dimer MW 97,004
K0.5 [2]: 30.9 ± 4.7 µM

B3: KIF3CC (Mus musculus) (protein)
chain: B1 chain 2
notes: engineered homodimer; motor domain, neck linker and helix α7 (Met1-Leu396) fused to EB1 dimerization domain; His8 tag not cleaved; E. coli; dimer MW 99,518 (borders printed for the KIF3C chain of KIF3AC; mass agrees)
K0.5 [3]: 13.9 ± 3.5 µM
